Data reported in ChEMBL document CHEMBL4024756, “Identification of 4-Phenoxyquinoline Based Inhibitors for L1196M Mutant of Anaplastic Lymphoma Kinase by Structure-Based Design” (J Med Chem, 2017).

What was measured:
Details in all cases: Homo sapiens
[1] = substrate: Cc1ccc(Oc2ccnc3cc(-c4cnn(C5CCNCC5)c4)ccc23)cc1
[2] = substrate: Cc1ccc(Oc2ccnc3cc(-c4cnn(C5CCNCC5)c4)ccc23)cc1; remark: listed apart in the source
[3] = substrate: Cc1ccc(Oc2ccnc3cc(-c4cnn(C5CCNCC5)c4)ccc23)cc1; remark: listed apart in the source
[4] = substrate: Cc1ccc(Oc2ccnc3cc(-c4cnn(C5CCNCC5)c4)ccc23)cc1; remark: listed apart in the source
[5] = substrate: Cc1ccc(Oc2ccnc3cc(-c4cnn(C5CCNCC5)c4)ccc23)cc1; remark: listed apart in the source

B1: ALK tyrosine kinase receptor (Homo sapiens), Q9UM73 L1196M (protein)
chain: MGAIGLLWLLPLLLSTAAVGSGMGTGQRAGSPAAGPPLQPREPLSYSRLQRKSLAVDFVVPSLFRVYARDLLLPPSSSELKAGRPEARGSLALDCAPLLRLLGPAPGVSWTAGSPAPAEARTLSRVLKGGSVRKLRRAKQLVLELGEEAILEGCVGPPGEAAVGLLQFNLSELFSWWIRQGEGRLRIRLMPEKKASEVGREGRLSAAIRASQPRLLFQIFGTGHSSLESPTNMPSPSPDYFTWNLTWIMKDSFPFLSHRSRYGLECSFDFPCELEYSPPLHDLRNQSWSWRRIPSEEASQMDLLDGPGAERSKEMPRGSFLLLNTSADSKHTILSPWMRSSSEHCTLAVSVHRHLQPSGRYIAQLLPHNEAAREILLMPTPGKHGWTVLQGRIGRPDNPFRVALEYISSGNRSLSAVDFFALKNCSEGTSPGSKMALQSSFTCWNGTVLQLGQACDFHQDCAQGEDESQMCRKLPVGFYCNFEDGFCGWTQGTLSPHTPQWQVRTLKDARFQDHQDHALLLSTTDVPASESATVTSATFPAPIKSSPCELRMSWLIRGVLRGNVSLVLVENKTGKEQGRMVWHVAAYEGLSLWQWMVLPLLDVSDRFWLQMVAWWGQGSRAIVAFDNISISLDCYLTISGEDKILQNTAPKSRNLFERNPNKELKPGENSPRQTPIFDPTVHWLFTTCGASGPHGPTQAQCNNAYQNSNLSVEVGSEGPLKGIQIWKVPATDTYSISGYGAAGGKGGKNTMMRSHGVSVLGIFNLEKDDMLYILVGQQGEDACPSTNQLIQKVCIGENNVIEEEIRVNRSVHEWAGGGGGGGGATYVFKMKDGVPVPLIIAAGGGGRAYGAKTDTFHPERLENNSSVLGLNGNSGAAGGGGGWNDNTSLLWAGKSLQEGATGGHSCPQAMKKWGWETRGGFGGGGGGCSSGGGGGGYIGGNAASNNDPEMDGEDGVSFISPLGILYTPALKVMEGHGEVNIKHYLNCSHCEVDECHMDPESHKVICFCDHGTVLAEDGVSCIVSPTPEPHLPLSLILSVVTSALVAALVLAFSGIMIVYRRKHQELQAMQMELQSPEYKLSKLRTSTIMTDYNPNYCFAGKTSSISDLKEVPRKNITLIRGLGHGAFGEVYEGQVSGMPNDPSPLQVAVKTLPEVCSEQDELDFLMEALIISKFNHQNIVRCIGVSLQSLPRFILMELMAGGDLKSFLRETRPRPSQPSSLAMLDLLHVARDIACGCQYLEENHFIHRDIAARNCLLTCPGPGRVAKIGDFGMARDIYRASYYRKGGCAMLPVKWMPPEAFMEGIFTSKTDTWSFGVLLWEIFSLGYMPYPSKSNQEVLEFVTSGGRMDPPKNCPGPVYRIMTQCWQHQPEDRPNFAIILERIEYCTQDPDVINTALPIEYGPLVEEEEKVPVRPKDPEGVPPLLVSQQAKREEERSPAAPPPLPTTSSGKAAKKPTAAEISVRVPRGPAVEGGHVNMAFSQSNPPSELHKVHGSRNKPTSLWNPTYGSWFTEKPTKKNNPIAKKEPHDRGNLGLEGSCTVPPNVATGRLPGASLLLEPSSLTANMKEVPLFRLRHFPCGNVNYGYQQQGLPLEAATAPGAGHYEDTILKSKNSMNQPGP
[1]
  Km: 58.8 µM
[2]
  Km: 94.6 µM
[3]
  Km: 298 µM
[4]
  Km: 860 µM
[5]
  Km: 32.6 µM
